The values that follow come from patent CN111333719A.

Assay [1] has as its target 抗HPV16E7蛋白单抗69A6. The assay is described as follows: indirect competition ELISA, peptide at 1μmol/L competes with coated HPV16E7 whole protein for 69A6.
Assay [2] has as its target 抗HPV16E7蛋白单抗69A6. The assay is described as follows: indirect competition ELISA, peptide at 10μmol/L competes with coated HPV16E7 whole protein for 69A6.

B1: 重叠肽HPV16E7 67-84 (peptide)
peptide: LCVQSTHVDIRTLEDLLM
Take B1: the 抑制率 in the assay with 抗HPV16E7蛋白单抗69A6 [1] is 47.3%; in the assay with 抗HPV16E7蛋白单抗69A6 [2], 91.6%.

B2: 重叠肽HPV16E7 73-90 (peptide)
peptide: HVDIRTLEDLLMGTLGIV
Take B2: the values for the 抑制率 in the assay with 抗HPV16E7蛋白单抗69A6 [1] and with 抗HPV16E7蛋白单抗69A6 [2] were 56.2% and 93.5%, respectively.

B3: 重叠肽HPV16E7 49-66 (peptide)
peptide: RAHYNIVTFCCKCDSTLR
With B3, the values for the 抑制率 with 抗HPV16E7蛋白单抗69A6 [1] and in the assay with 抗HPV16E7蛋白单抗69A6 [2] were 15.6% and 16.3%, respectively.

B4: 重叠肽HPV16E7 85-98 (peptide)
peptide: GTLGIVCPICSQKP
Take B4: the 抑制率 was 48.6% with 抗HPV16E7蛋白单抗69A6 [1] and 92% with 抗HPV16E7蛋白单抗69A6 [2].
